# Earlier results in patent publication US20060234934A1, “Composition and Method for Selective Cytostasis” (priority 2005, published 2006).
# B1: EGF: Epidermal Growth Factor (protein, UniProt P01133 23-1207, looked up)
# Pro-epidermal growth factor: PQHWSCPEGTLAGNGNSTCVGPAPFLIFSHGNSIFRIDTEGTNYEQLVVDAGVSVIMDFHYNEKRIYWVDLERQLLQRVFLNGSRQERVCNIEKNVSGMAINWINEEVIWSNQQEGIITVTDMKGNNSHILLSALKYPANVAVDPVERFIFWSSEVAGSLYRADLDGVGVKALLETSEKITAVSLDVLDKRLFWIQYNREGSNSLICSCDYDGGSVHISKHPTQHNLFAMSLFGDRIFYSTWKMKTIWIANKHTGKDMVRINLHSSFVPLGELKVVHPLAQPKAEDDTWEPEQKLCKLRKGNCSSTVCGQDLQSHLCMCAEGYALSRDRKYCEDVNECAFWNHGCTLGCKNTPGSYYCTCPVGFVLLPDGKRCHQLVSCPRNVSECSHDCVLTSEGPLCFCPEGSVLERDGKTCSGCSSPDNGGCSQLCVPLSPVSWECDCFPGYDLQLDEKSCAASGPQPFLLFANSQDIRHMHFDGTDYGTLLSQQMGMVYALDHDPVENKIYFAHTALKWIERANMDGSQRERLIEEGVDVPEGLAVDWIGRRFYWTDRGKSLIGRSDLNGKRSKIITKENISQPRGIAVHPMAKRLFWTDTGINPRIESSSLQGLGRLVIASSDLIWPSGITIDFLTDKLYWCDAKQSVIEMANLDGSKRRRLTQNDVGHPFAVAVFEDYVWFSDWAMPSVMRVNKRTGKDRVRLQGSMLKPSSLVVVHPLAKPGADPCLYQNGGCEHICKKRLGTAWCSCREGFMKASDGKTCLALDGHQLLAGGEVDLKNQVTPLDILSKTRVSEDNITESQHMLVAEIMVSDQDDCAPVGCSMYARCISEGEDATCQCLKGFAGDGKLCSDIDECEMGVPVCPPASSKCINTEGGYVCRCSEGYQGDGIHCLDIDECQLGEHSCGENASCTNTEGGYTCMCAGRLSEPGLICPDSTPPPHLREDDHHYSVRNSDSECPLSHDGYCLHDGVCMYIEALDKYACNCVVGYIGERCQYRDLKWWELRHAGHGQQQKVIVVAVCVVVLVMLLLLSLWGAHYYRTQKLLSKNPKNPYEESSRDVRSRRPADTEDGMSSCPQPWFVVIKEHQDLKNGGQPVAGEDGQAADGSMQPTSWRQEPQLCGMGTEQGCWIPVSSDKGSCPQVMERSFHMPSYGTQTLEGGVEKPHSLLSANPLWQQRALDPPHQMELTQ
# modifications: Pro-epidermal growth factor
# Test system: human embryonic palatal mesenchymal cells
molecule,measurement,value
B1,stimulation of incorporation of 3[H]-thymidine into newly synthesized DNA,a little more than twofold
